# Experimental data published in patent US20110028697.
# T1: MazE (E. coli), MazE from Escherichia coli with His-Tag and Myc-Tag at the N-terminal end
# T1 chain: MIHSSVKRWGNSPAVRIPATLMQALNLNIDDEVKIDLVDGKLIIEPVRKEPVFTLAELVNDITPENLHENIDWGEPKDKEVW
# B1: MazF (E. coli), N-terminally His-Tagged MazF from Escherichia coli (protein)
# chain: MVSRYVPDMGDLIWVDFDPTKGSEQAGHRPAVVLSPFMYNNKTGMCLCVPCTTQSKGYPFEVVLSGQERDGVALADQVKSIAWRARGATKKGTVAPEELQLIKAKINVLIG
# Molecular target: T1, MazE (E. coli), MazE from Escherichia …
protein,measurement,value
B1,"degradation of the substrate MazG30 by the ribonuclease activity of MazF (E. coli), gel electrophoresis","When MazE and MazF were added to the substrate MazG30, degradation of the substrate MazG30 was inhibited and the band at the position corresponding to a 14mer polypeptide was decreased"
